Results from publication PMC11293385 (Genes & Development, 2024).
One block for each binder: values may come before it.

B5: His-tagged IκBζ(404–718) (domain or fragment, human, UniProt Q9BYH8 404-718, looked up)
chain: MGNPMNTTQLGKSLFQWQVEQEESKLANISQDQFLSKDADGDTFLHIAVAQGRRALSYVLARKMNALHMLDIKEHNGQSAFQVAVAANQHLIVQDLVNIGAQVNTTDCWGRTPLHVCAEKGHSQVLQAIQKGAVGSNQFVDLEATNYDGLTPLHCAVIAHNAVVHELQRNQQPHSPEVQELLLKNKSLVDTIKCLIQMGAAVEAKDRKSGRTALHLAAEEANLELIRLFLELPSCLSFVNAKAYNGNTALHVAASLQYRLTQLDAVRLLMRKGADPSTRNLENEQPVHLVPDGPVGEQIRRILKGKSIQQRAPPY

Tests used:
[1] = target: NF-kB p50;GST-IkBzeta ankyrin repeat domain (Mus musculus;Homo sapiens, UniProt P25799;Q9BYH8 1-376;404-718, |); assay: EMSA supershift
crystal structure = target: the molecule itself; assay: crystal structure
His-tagged IκBζ(404–718) = target: B5; assay: SPR
p50(1–376) homodimer = target: T1, p50(1–376) homodimer (murine, UniProt P25799 1-376); assay: native gel or EMSA
T1 sequence (looked up): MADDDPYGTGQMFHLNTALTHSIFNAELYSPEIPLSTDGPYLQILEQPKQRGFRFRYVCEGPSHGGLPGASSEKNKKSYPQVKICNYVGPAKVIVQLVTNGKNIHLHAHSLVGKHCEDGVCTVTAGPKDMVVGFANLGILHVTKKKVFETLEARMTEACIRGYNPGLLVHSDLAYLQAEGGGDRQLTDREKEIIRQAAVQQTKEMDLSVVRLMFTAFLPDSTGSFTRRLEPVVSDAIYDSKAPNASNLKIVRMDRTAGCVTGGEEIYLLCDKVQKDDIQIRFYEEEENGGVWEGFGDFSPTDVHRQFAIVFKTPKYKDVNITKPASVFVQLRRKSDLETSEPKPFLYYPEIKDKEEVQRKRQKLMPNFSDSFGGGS

[2] = target: p50(1–376):RelA(1–325) heterodimer (murine, UniProt P25799 1-376; Q04207 1-325); assay: native gel or EMSA
p50(1–435) homodimer = target: T2, p50(1–435) homodimer (murine, UniProt P25799 1-435); assay: SPR
T2 sequence (looked up): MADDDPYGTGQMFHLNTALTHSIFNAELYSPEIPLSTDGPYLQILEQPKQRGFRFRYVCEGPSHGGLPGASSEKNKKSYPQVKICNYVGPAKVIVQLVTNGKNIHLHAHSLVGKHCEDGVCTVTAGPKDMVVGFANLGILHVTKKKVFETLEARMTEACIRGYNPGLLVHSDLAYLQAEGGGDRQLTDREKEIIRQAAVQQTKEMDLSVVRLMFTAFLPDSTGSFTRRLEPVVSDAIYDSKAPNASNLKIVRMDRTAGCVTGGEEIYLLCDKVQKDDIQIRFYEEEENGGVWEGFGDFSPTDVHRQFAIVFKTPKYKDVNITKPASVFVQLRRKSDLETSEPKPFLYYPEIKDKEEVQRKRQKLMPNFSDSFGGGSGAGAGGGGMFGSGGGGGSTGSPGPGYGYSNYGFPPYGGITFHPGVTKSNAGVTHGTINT

p50(39–363) homodimer = target: T3, p50(39–363) homodimer (murine, UniProt P25799 39-363); assay: SPR
T3 sequence (looked up): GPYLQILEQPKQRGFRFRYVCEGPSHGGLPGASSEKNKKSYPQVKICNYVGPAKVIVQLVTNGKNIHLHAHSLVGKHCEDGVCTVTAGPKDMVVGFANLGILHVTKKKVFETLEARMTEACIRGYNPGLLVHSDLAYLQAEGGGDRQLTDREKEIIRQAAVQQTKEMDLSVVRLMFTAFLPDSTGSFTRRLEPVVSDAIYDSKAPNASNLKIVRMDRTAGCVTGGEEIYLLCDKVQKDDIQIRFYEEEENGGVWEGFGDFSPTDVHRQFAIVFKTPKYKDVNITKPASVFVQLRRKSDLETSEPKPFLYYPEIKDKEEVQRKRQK

Chain of p50(1–376):RelA(1–325) heterodimer (Q04207 1-325, one chain of several): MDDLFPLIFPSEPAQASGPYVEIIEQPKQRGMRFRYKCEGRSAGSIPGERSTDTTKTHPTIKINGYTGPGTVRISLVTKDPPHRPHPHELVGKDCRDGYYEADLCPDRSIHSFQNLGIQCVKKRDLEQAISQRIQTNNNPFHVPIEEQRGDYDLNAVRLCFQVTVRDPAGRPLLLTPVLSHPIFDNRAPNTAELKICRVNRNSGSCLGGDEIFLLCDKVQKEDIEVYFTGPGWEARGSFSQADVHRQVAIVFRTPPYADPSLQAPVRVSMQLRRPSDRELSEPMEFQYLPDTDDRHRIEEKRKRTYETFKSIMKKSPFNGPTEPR

B1: human IL-6 kB DNA probe (dsDNA)
DNA 1: AGATTTATCAAATGTGGGATTTTCCCATGAGTCTCAATATT
DNA 2: AATATTGAGACTCATGGGAAAATCCCACATTTGATAAATCT
binding result [1]: binds

Binder: B5
binding result (p50(1–435) homodimer): binds
binding result (p50(39–363) homodimer): binds

Second part, led by results:

Kd (His-tagged IκBζ(404–718)): 0.0912 nM
B2: murine p50 dimerization domain homodimer (residues 245–376) (domain or fragment, UniProt P25799 245-376, looked up)
chain: ASNLKIVRMDRTAGCVTGGEEIYLLCDKVQKDDIQIRFYEEEENGGVWEGFGDFSPTDVHRQFAIVFKTPKYKDVNITKPASVFVQLRRKSDLETSEPKPFLYYPEIKDKEEVQRKRQKLMPNFSDSFGGGS
binding result (crystal structure): binds

Kd (His-tagged IκBζ(404–718)): 0.615 nM
B3: RelA(191–290)–p50(350–376) chimeric fusion protein (other, murine, UniProt Q04207 191-290, looked up)
chain: TAELKICRVNRNSGSCLGGDEIFLLCDKVQKEDIEVYFTGPGWEARGSFSQADVHRQVAIVFRTPPYADPSLQAPVRVSMQLRRPSDRELSEPMEFQYLPEIKDKEEVQRKRQKLMPNFSDSFGGGS

binding result (p50(1–376) homodimer): binds
binding result [2]: binds
B4: GST-IκBζ(404–718) (domain or fragment, human, UniProt Q9BYH8 404-718, looked up)
chain: MGNPMNTTQLGKSLFQWQVEQEESKLANISQDQFLSKDADGDTFLHIAVAQGRRALSYVLARKMNALHMLDIKEHNGQSAFQVAVAANQHLIVQDLVNIGAQVNTTDCWGRTPLHVCAEKGHSQVLQAIQKGAVGSNQFVDLEATNYDGLTPLHCAVIAHNAVVHELQRNQQPHSPEVQELLLKNKSLVDTIKCLIQMGAAVEAKDRKSGRTALHLAAEEANLELIRLFLELPSCLSFVNAKAYNGNTALHVAASLQYRLTQLDAVRLLMRKGADPSTRNLENEQPVHLVPDGPVGEQIRRILKGKSIQQRAPPY
